# Measured values published in patent publication US20220401523A1.
# B1: mature human wild-type FGF21, FGF21(His29-Ser209), Q9NSA1 29-209 (ligand)
# chain: HPIPDSSPLLQFGGQVRQRYLYTDDAQQTEAHLEIREDGTVGGAADQSPESLLQLKALKPGVIQILGVKTSRFLCQRPDGALYGSLHFDPEACSFRELLLEDGYNVYQSEAHGLPLHLPGNKSPHRDPAPRGPARFLPLPGLPPAPPEPPGILAPQPPDVGSSDPLSMVGPSQGRSPSYAS
# Legend:
# [1] = molecular target: human glucagon-like peptide-1 (GLP-1) receptor (human) (UniProt P43220); assay: cell-based or functional assay
# [2] = molecular target: human FGFR1c (FGF receptor 1c isoform) together with human beta-Klotho (KLB) (human), P11362; assay: cell-based or functional assay
# human FGFR1c (FGF receptor 1c isoform) together with human beta-Klotho (KLB) (human), P11362, sequence (P11362 22-822, chain 1 of 2): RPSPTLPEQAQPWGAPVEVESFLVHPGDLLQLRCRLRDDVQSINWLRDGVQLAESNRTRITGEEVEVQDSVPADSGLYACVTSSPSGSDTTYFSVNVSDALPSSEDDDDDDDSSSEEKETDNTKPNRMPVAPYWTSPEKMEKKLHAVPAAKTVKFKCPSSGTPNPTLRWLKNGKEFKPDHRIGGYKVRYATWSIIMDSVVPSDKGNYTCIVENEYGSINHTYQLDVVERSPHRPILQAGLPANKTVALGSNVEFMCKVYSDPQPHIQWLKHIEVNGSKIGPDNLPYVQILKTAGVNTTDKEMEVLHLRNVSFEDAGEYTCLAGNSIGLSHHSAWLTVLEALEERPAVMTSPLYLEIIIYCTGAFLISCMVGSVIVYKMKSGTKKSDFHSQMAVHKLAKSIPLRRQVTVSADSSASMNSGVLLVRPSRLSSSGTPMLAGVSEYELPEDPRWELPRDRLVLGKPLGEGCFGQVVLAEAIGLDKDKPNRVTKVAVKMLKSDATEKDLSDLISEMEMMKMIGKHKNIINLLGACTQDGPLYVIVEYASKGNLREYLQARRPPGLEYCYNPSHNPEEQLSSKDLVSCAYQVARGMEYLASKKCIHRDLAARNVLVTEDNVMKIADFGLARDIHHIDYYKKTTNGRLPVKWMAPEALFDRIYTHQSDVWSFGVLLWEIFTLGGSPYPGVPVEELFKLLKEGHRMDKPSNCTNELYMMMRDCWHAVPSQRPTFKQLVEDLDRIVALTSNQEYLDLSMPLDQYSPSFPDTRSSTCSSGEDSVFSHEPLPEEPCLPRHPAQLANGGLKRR
# human FGFR1c (FGF receptor 1c isoform) together with human beta-Klotho (KLB) (human), P11362, sequence (Q86Z14 whole entry, chain 2 of 2, further chain, canonical isoform): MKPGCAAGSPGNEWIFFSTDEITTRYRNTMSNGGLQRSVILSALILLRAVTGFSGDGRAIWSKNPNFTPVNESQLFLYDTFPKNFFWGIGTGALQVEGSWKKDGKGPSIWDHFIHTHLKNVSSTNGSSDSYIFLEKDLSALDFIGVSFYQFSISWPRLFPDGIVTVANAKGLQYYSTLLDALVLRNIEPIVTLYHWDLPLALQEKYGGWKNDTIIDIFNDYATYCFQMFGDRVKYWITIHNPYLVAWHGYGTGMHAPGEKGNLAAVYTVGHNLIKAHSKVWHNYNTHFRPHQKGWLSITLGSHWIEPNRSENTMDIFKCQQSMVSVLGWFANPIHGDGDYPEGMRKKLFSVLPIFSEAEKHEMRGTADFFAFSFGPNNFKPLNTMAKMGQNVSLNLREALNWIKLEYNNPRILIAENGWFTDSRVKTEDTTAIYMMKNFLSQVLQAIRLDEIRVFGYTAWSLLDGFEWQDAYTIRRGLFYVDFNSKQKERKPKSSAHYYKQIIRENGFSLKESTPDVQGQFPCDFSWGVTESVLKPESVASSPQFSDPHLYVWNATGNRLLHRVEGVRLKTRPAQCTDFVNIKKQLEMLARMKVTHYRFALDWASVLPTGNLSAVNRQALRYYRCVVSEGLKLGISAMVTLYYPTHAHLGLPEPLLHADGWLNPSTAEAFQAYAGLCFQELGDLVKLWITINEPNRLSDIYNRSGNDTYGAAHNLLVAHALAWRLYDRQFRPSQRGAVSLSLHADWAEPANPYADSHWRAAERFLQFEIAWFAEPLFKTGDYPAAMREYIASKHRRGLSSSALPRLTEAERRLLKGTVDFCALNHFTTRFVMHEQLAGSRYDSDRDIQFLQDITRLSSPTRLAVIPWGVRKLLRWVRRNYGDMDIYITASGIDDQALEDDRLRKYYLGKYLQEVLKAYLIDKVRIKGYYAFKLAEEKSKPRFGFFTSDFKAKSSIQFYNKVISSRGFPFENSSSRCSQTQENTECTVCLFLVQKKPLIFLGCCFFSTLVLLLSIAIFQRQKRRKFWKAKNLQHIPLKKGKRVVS
# UniProt P43220, sequence (P43220 24-463): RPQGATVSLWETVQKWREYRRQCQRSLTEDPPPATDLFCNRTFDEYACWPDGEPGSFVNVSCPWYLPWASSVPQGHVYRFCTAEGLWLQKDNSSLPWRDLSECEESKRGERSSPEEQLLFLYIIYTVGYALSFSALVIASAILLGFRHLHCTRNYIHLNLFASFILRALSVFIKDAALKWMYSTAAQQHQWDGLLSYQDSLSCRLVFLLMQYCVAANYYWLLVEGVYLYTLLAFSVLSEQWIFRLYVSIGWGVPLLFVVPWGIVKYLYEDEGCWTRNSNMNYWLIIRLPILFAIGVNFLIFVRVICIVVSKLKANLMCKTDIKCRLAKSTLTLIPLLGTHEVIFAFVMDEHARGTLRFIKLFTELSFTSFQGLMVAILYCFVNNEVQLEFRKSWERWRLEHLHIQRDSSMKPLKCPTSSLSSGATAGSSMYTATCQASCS
Molecule,EC50 of cAMP response (HTRF) [1],Ratio GLP-1R agonistic activity: native GLP-1(7-36)/tested GLP-1R agonist [1],"pERK ICW EC50 (downstream activation of the MAP kinase ERK1/2, In-Cell Western) [2]","pFGFR ICW EC50 (FGF21 receptor autophosphorylation, In-Cell Western) [2]"
"GLP1(7-36) A8G, V16L, S18K, Y19Q, G22E, Q23E, A25V, K26Q, E27L, A30E, V33E, K34A, G35T, R36G, insPSS (Fc fusion)",0.134 nM,174 fold,–,–
"GLP1(7-36) A8G, V16L, S18I, Y19Q, E21D, G22E, Q23E, A25V, K26R, E27L, A30E, V33E, K34A, G35T, R36G, (Fc fusion)",0.675 nM,877 fold,–,–
"GLP1(7-36) A8G, V16L, S18K, Y19Q, E21D, G22E, Q23E, A25V, K26Q, E27L, A30E, V33L, K34A, G35T, R36G, (Fc fusion)",0.173 nM,225 fold,–,–
"GLP1(7-36) A8G, V16L, S18I, Y19Q, E21D, G22E, Q23E, A25V, K26R, E27L, A30E, V33L, K34A, G35T, R36G, (Fc fusion)",0.0605 nM,78.6 fold,–,–
B1,–,–,0.18 nmol/L,4.8 nmol/L
